# According to patent publication US20140170125A1, “USE OF CARDIOTROPHIN-1 FOR THE TREATMENT OF KIDNEY DISEASES” (DIGNA Biotech, S.L., priority 2011, published 2014):
# “Also recorded” adds a separate entry of the source.
# Tests used:
# [1] = tested on: experimental model of iodinated contrast nephropathy; test: Contrast-induced nephropathy: Gastrografin in rats sensitized with subtoxic gentamicin; settings: for KIM-1 in the urine (Western blot): in comparison with the controls; for general condition (appearance, mobility): throughout the experiment; for survival: until the end of the experiment (four days after contrast); for PAI-1 in the urine (Western blot): vs control group
# Method: The rats were placed in individual metabolic cages where they had free access to food and drink. After two days of acclimatization, the 24-hour urine was collected in graduated cylinders. The urine collected was centrifuged during 8 minutes at 2,500 rpm, to clean it from residues not thereof, the clean urine was collected and it was stored at −80° C. for its later analysis.
# The blood samples were obtained in capillaries with heparin by a small cut at the end of the tail. Five capillaries were extracted per rat (200 μL), and the capillaries were centrifuged in a microcentrifuge at 11,000 rpm during three minutes. Once centrifuged, the capillaries were broken with the aid of a file, by the cells-plasma limit. The plasma was extracted and stored in eppendorf tubes at −80° C. for its later analysis.
# To measure kidney function, the plasma concentrations of creatinine and creatinine clearance, which is a measurement of the glomerular filtration rate, were determined. The creatinine clearance (CrCl) was calculated from the formula CrCl=UF×CrU/CrP, where UF is the urinary flow (ml/min), CrU the creatinine concentration in urine (mg/ml) and CrP the creatinine concentration in plasma (mg/ml). The creatinine concentration in urine and in plasma were measured by a semiautomatic analyser (Reflotron, Roche).
# The concentration of urea in plasma was measured by specific reactive strips of a commercial kit, using a semiautomatic analyser (Reflotron, Roche).
# The concentration of proteins in urine (proteinuria) was measured by Bradford's colorimetric method (Anal Biochem. 1976; 72:248-54). The urinary excretion of proteins (UEprot) in 24 hours was calculated by the formula: UEprot=Cprot×FU24 h, where Cprot is the concentration of proteins in urine (mg/mL) and FU24 h the urinary flow of 24 hours (mL/day).
# For its determination a commercial kit from Roche was used, following the manufacturer's specifications, and the results were analysed with the KC-Junior software.
# In the Western Blot technique, 100 μg of protein of the total of the renal tissue homogenate or a volume of urine of each animal which corresponds to the excretion fraction were loaded in a polyacrylamide gel. After separation by electrophoresis, these proteins were transferred to a PVDF membrane (Inmobilon-P #IPVH00010, Madrid, Spain), and they were hybridized with antibodies against KIM-1 (R&D Systems) and NGAL (MBL).
# An experimental model of iodinated contrast nephropathy was used, consisting of the intravenous administration of the iodinated contrast Gastrografin (Bayer C. N. 909622 EXO) to rats predisposed to suffering acute kidney failure.
# The experiment was performed on 32 male Wistar rats of around 220 grams in weight. The environmental conditions of the animals were kept constant: temperature of around 20° C., humidity of approximately 60% and daily light period (photoperiod) of 12 hours.
# Six experimental groups were considered in the design study:
# Control group (C): rats administered saline solution (n=5).
# Cardiotrophin group (CT-1): rats administered cardiotrophin i.v. (100 μg/Kg/day) the day before the administration of the contrast and in the four subsequent days (n=5).
# Gastrografin group (Gg): rats administered a single dose of iodinated agent i.v. (10 mL/Kg; […]) (n=5).
# The animals were housed in metabolic cages in order to collect the urine free of faeces. Likewise, a blood sample was obtained every day (0.150 ml) from the tail in heparized capillaries.
# At the end of the experiments (four days after administration of the iodinated contrast) the rats were anaesthetized and, later, they were perfused with heparinized saline solution. The kidneys were obtained from these animals and part of the samples was introduced in formol to perform histological studies whilst another part was ultrafrozen for the tissue studies.
# The studies performed were the following:
# Plasma creatinine, Plasma urea, proteinuria, microalbuminuria
# Creatinine clearance in metabolic cages
# [2] = tested on: acute kidney injury produced by gentamicin; test: Acute kidney injury produced by gentamicin; settings: for urinary flow: administered separately, vs control group (C); for reactive bands to the anti KIM-1 antibody in the urine / renal levels of KIM-1 (Western blot): vs controls; for survival: until the end of the experiment
# [3] = tested on: cisplatin-induced kidney injury; test: Acute kidney injury produced by cisplatin; assay type: in vivo, Wistar rats
# Method: The urinary flow (mL/day) was evaluated measuring the graduated receptacles containing the 24-hour urine in the metabolic cages as indicated in the obtainment of urine.
# The experiment was performed in 24 male Wistar rats of around 220 grams in weight.
# The animals were divided in 4 experimental groups, comprising 6 rats per group. […] The experimental design was developed as described below:
# Group I (Control, C, n=6 animals) animals treated with vehicle via i.v. during 7 days.
# Group II (Cardiotrophin-1, CT-1, n=6 animals) animals administered a daily dose of cardiotrophin-1 of 100 μg/kg body weight via i.v. during 7 days.
# [4] = tested on: rats subjected to 60 minutes of left renal ischemia; test: Acute kidney injury produced by renal ischemia/reperfusion (60 minutes of left renal ischemia); assay type: in vivo
# [5] = agents without CT-1 protection or alone, vs control
# [6] = group Gg+G+CT-1, CT-1 100 μg/Kg/day i.v.
# [7] = 4 hours after reperfusion, elevation induced by IR
molecule,measurement,setting,value
gentamicin [reference compound],proteinuria,[1]; [5],did not alter
same,KIM-1 in the urine (Western blot),[1],produced no effect
same,"general condition (appearance, mobility)",[1],healthy appearance and normal mobility
same,survival,[1],all animals survived until the end of the experiment
same,PAI-1 in the urine (Western blot),[1],not different from the control group animals
same,urinary flow,[2],"Neither G nor CT-1, administered separately, modified the urinary flow"
same,"general condition (appearance, mobility)",[2]; agent alone,"more deteriorated appearance, reduced mobility and slight colouring of the hair"
same,proteinuria,[2]; agent alone,high proteinuria
same,reactive bands to the anti KIM-1 antibody in the urine,[2]; agent alone,clear increase
same,renal levels of KIM-1 (Western blot),[2]; agent alone,clear increase
same,liver weight (with respect to the body weight),[2]; at the time of sacrifice,tendency for relative weight reduction
same,renal and urinary NGAL (Western blot),[2]; end of treatments,induce an increase
same,renal cortex histology (hematoxylin-eosin),"[2]; gentamicin alone, end of treatments",massive tubular necrosis
same,survival,[2],one animal from each group died
same,body weight,[2]; vs control and CT-1 groups,slight decrease
"CT-1: cytokine belonging to the interleukin 6 family; recombinant human CT-1 or rat cardiotrophin-1 administered i.v. (protein, UniProt Q16619 1-201, looked up) Cardiotrophin-1: MSRREGSLEDPQTDSSVSLLPHLEAKIRQTHSLAHLLTKYAEQLLQEYVQLQGDPFGLPSFSPPRLPVAGLSAPAPSHAGLPVHERLRLDAAALAALPPLLDAVCRRQAELNPRAPRLLRRLEDAARQARALGAAVEALLAALGAANRGPRAEPPAATASAASATGVFPAKVLGLRVCGLYREWLSRTEGDLGQLLPGGSA",body weight,"[3]; agent alone, vs control group",without apparent differences; also recorded: does not show changes
same,plasma creatinine,"[3]; agent alone, vs control group",does not reflect changes
same,cisplatin-induced reduction in body weight under joint treatment,"[3]; cardiotrophin-1 100 μg/kg i.v. 7 days + cisplatin 6 mg/kg i.p., vs cisplatin",significantly less
same,cisplatin-induced increase in plasma creatinine under joint treatment,"[3]; cardiotrophin-1 100 μg/kg i.v. 7 days + cisplatin 6 mg/kg, vs cisplatin",significantly less
same,physical condition during coadministration with cisplatin,[3]; cardiotrophin-1 + cisplatin,spectacular improvement
same,cisplatin-induced increase in final kidney weight under joint treatment,"[3]; cardiotrophin-1 + cisplatin, vs cisplatin",substantially less
same,effect on cisplatin-induced kidney injury (conclusion),"[3]; rat cardiotrophin-1 100 μg/kg/day i.v. 7 days, cisplatin 6 mg/kg",protective effect
same,survival,"[3]; throughout the experimental period, vs control group",does not modify the survival
same,urinary flow under joint administration with cisplatin,[3]; without significant differences vs control and cardiotrophin-1 groups,constant evolution
same,creatinine clearance,[1]; [5],did not alter
same,plasma concentration of creatinine,[1]; [5],did not alter
same,proteinuria,[1]; [5],did not alter
same,urea plasma concentration,[1]; [5],did not alter
same,effect on the RPF decrease produced by Gg+G,[1]; co-treatment with CT-1,reversal
same,effect on the RVR increase produced by gentamicin and gastrografin,[1]; coadministration of CT-1,counteracted the increase
same,PAI-1 in the urine under Gg+G with CT-1,[1]; group Gg+G+CT-1,does not appear
same,effect on the GFR decrease produced by Gg+G,[1]; group Gg+G+CT-1,reversed
same,effect on the NAG increase produced by Gg+G,[1]; group Gg+G+CT-1,reduced this increase
same,effect on the decrease in creatinine clearance produced by Gg+G,[1]; [6],partially reversed
same,effect on the increase in plasma concentration of creatinine produced by Gg+G,[1]; [6],partially reversed
same,effect on the increase in plasma urea produced by Gg+G,[1]; [6],partially reversed
same,effect on the proteinuria produced by Gg+G,[1]; [6],partially reversed
same,KIM-1 in the urine (Western blot),[1],produced no effect
same,deterioration of renal excretory function and intensity of tubular damage (conclusion),"[1]; recombinant human CT-1 i.v. 100 μg/kg/day, contrast nephropathy in animals sensitized with gentamicin",reduces
same,"general condition (appearance, mobility)",[1],healthy appearance and normal mobility
same,survival,[1],all animals survived until the end of the experiment
same,effect on the increase in KIM-1 expression produced by Gg+G,"[1]; urine, Western blot, group Gg+G+CT-1",considerably decreases the increase
same,PAI-1 in the urine (Western blot),[1],not different from the control group animals
same,"gentamicin-induced symptoms (appearance, mobility, hair) in group G+CT-1",[2]; CT-1 100 μg/kg/day i.v. 7 days + gentamicin 150 mg/kg/day i.p. 6 days,significantly reduced
same,effect on the decrease in creatinine clearance produced by G,[2]; CT-1 together with G,partially reversed
same,effect on the increase in plasma creatinine produced by G,[2]; CT-1 together with G,partially reversed
same,effect on the increase in plasma urea concentration produced by G,[2]; CT-1 together with G,partially reversed
same,effect on the proteinuria produced by G,[2]; CT-1 together with G,partially reversed
same,urinary flow,[2],"Neither G nor CT-1, administered separately, modified the urinary flow"
same,creatinine clearance,[2]; agent alone,did not alter
same,"general condition (appearance, mobility)",[2]; agent alone,healthy appearance and normal mobility
same,plasma creatinine,[2]; agent alone,did not alter
same,proteinuria,[2]; agent alone,did not alter
same,urea plasma concentration,[2]; agent alone,did not alter
same,reactive bands to the anti KIM-1 antibody in the urine,[2]; agent alone,does not produce any effect
same,renal levels of KIM-1 (Western blot),[2]; agent alone,does not produce any effect
same,liver weight (with respect to the body weight),[2]; at the time of sacrifice,certain hepatomegaly
same,spleen weight (with respect to the body weight),[2]; at the time of sacrifice,marked splenomegaly
same,systolic blood pressure (SBP),[2]; basal vs end of treatments (d 6),not observed
same,extension of gentamicin tubular damage under cotreatment (histology),[2]; cotreatment with CT-1,moderately and partially prevents the extension of tubular damage
same,renal and urinary NGAL (Western blot),[2]; end of treatments,induce an increase
same,effect on the increase in NAG excretion produced by G,[2]; especially the submaximal of the first days,reduces this increase
same,effect on the increase in KIM-1 expression in the kidney that G produces,[2]; group G+CT-1,does not appreciably decrease
same,effect on the weight loss produced by G,[2]; group G+CT-1,partially mitigated
same,upper band (approx. 90 kDa) of KIM-1 in the urine under G with CT-1,[2]; group G+CT-1,partially decreases
same,effect on acute kidney injury produced by gentamicin (conclusion),"[2]; recombinant human CT-1 i.v. 100 μg/kg/day, 7 days",protective effect
same,survival,[2],all animals survived until the end of the experiment
same,decrease of plasma levels of IL-6 after ischemia and reperfusion,[4]; 4 hours after reperfusion,not observed
same,decrease of plasma levels of IL-10 after ischemia and reperfusion,[4]; 4 hours after reperfusion,not observed
same,plasma levels of IFN-γ,[4]; [7],blocked the elevation
same,plasma levels of IL-1β,[4]; [7],blocked the elevation
same,plasma levels of TNF-α,[4]; [7],blocked the elevation
same,obstructed tubules and vacuolated cells (histology),"[4]; 24 hours after reperfusion, vs control kidneys",less abundant
same,creatinine clearance,"[4]; 48 hours after I/R, vs IR C",significantly higher
same,plasma creatinine,"[4]; 48 hours after I/R, vs IR C, no significant differences vs simulated group",markedly lower
same,denuded tubules and inflammatory infiltration (histology),"[4]; 48 hours after reperfusion, vs control kidneys",less abundant
same,mortality,"[4]; 14 days after the I/R, CT-1 400 μg/kg, untreated ischemic group 40%",20%
same,acute kidney injury induced by ischemia/reperfusion (conclusion),"[4]; also decrease in kidney function, oxidative stress and inflammation",prevents acute kidney injury
same,renal levels of superoxide anion (SOA),"[4]; four hours after reperfusion, vs ischemic control group, significantly greater than simulated group",significantly less
